Source: the DeepSol protein solubility set

assay: soluble on expression in E. coli; label from the status in PepcDB or PDB records

Sequence | soluble on expression in E. coli
MISEGCEQCAKGGKMVLFVYGYCDQRDCFYCPLGENRKNVTQMYANERPIEDDADVIEEAKRMSALGTSITGGEPQEVLDRTCHYLELLKDEFGEDHHTHLYTGIPGGRENMRRLSEAGLDEIRFHPPLEQWGDLHGTEWEDILYIAREEGLTPAFEIPGIRAEEEFLEFLDEGAADFCNINEFEMSDGNYRRMQEEGFELKEDHMSAVEGSHDILEKMGDHEKVYFCTSVFKDAAQHRSRLKRMARNIRRPFDDVTDDGTLVYGKAWTSEARLETLGVPEEYYTVKSEHVELAWWLLEEMVEEGDVEKGEIVEQYPTYDGTVVERTPLSNGADAGRATADD | not soluble
RAAIHDIATPVAIVDEQGRVVNLNAAAEQMLAVDKHEALTEPLNDFLGGDDIATDGGSSRVSIEADGRHREYKVQQTALRDETGTQLGYTVVFQDIT | soluble
MGSDKIHHHHHHMKLAVYVHVPFCKSKCVYCDFYSVVSEKFDEYFSHLLREIDLYEEVLSESEIKTVYFGGGTPSVVPPSFLKMVLEKLERVSRGFTPDEITIEVNPESVETEKLKIYKQIGINRISLGVQACDDTVLKNAGRLYKEETLKKKAKIVLEQFENVNFDFILGLPGETDITLKKDFRFLEEFPPQHVSLYLLEVDERTRLFDLIQKGLVELPEEDDVERRHDLFVEFLKERGFLRYEISNFAKPGKKSLHNLFYWRNENYLGLGVSAGGHIGRFRYVNASDLKEYEEKITKGELPYEYVHENTEEEEALETVFMGLRIKEGVELNRVKILLPLLEKLQKKYPCYLKVKNGKIFLSEDGMNFSKKILSDLIEWYREGGR | not soluble
DDDDEEEDDFVYFNFNKEKEEKNKNSIHPNDFQIYNSLKYKYHPEYQYLNIIYDIMMNGNKQSDRTGVGVLSKFGYIMKFDLSQYFPLLTTKKLFLRGIIEELLWFIRGETNGNTLLNKNVRIWEANGTREFLDNRKLFHREVNDLGPIYGFQWRHFGAEYTNMYDNYENKGVDQLKNIINLIKNDPTSRRILLCAWNVKDLDQMALPPCHILCQFYVFDGKLSCIMYQRSCDLGLGVPFNIASYSIFTHMIAQVCNLQPAQFIHVLGNAHVYNNHIDSLKIQLNRIPYPFPTLKLNPDIKNIEDFTISDFTIQNYVHHEKISMDMAA | soluble
MADKENATKIEKMPNSETMKGISSEDVPFEEDIIRNPTSVNCWQRYIDHKLQNKSPAKQMFLIYERALAVFERSYKLWYHYLKYRESTIVNKCPTDNSWRALCDTYERCLMRLHKMPRIWICYCEVMIKRGLITETRRVFDRALRSLPVTQHMRIWTLYIGFLTSHDLPETTIRVYRRYLKMNPKAREDYVEYLIERDQIDEAAKELTTLVNQDQNVSEKGRTAHQLWTQLCDLISKNPVKIFSLNVDAIIRQGIYRYTDQVGFLWCSLADYYIRSAEFERARDVYEEAIAKVSTVRDFAQVYDAYAAFEEREVSIMMQEVEQSGDPEEEVDLEWMFQRYQHLMERKNELMNSVLLRQNPHNVGEWLNRVNIYEGNYNKQIETFKEAVKSVNPKIQVGKVRDLWIGLAKLYEDNGDLDAARKTFETAVISQFGGVSELANVWCAYAEMEMKHKRAKAALTVMQRACVVPKPGDYENMQSVQARVHRSPILWAMYADYEECCGTVESCRKVYDKMIELRVASPQMIMNYAMFLEENEYFELAFQAYEKGIALFKWPGVFDIWNTYLVKFIKRYGGKKLERARDLFEQCLENCPPTHAKYIFLLYAKLEEEHGLARHALSIYNRACSGVDRADMHSMYNIYIKKVQEMYGIAQCRPIFERAISELPEDKSRAMSLRYAQLETTVGEIDRARAIYAHAAEISDPKVHVKFWDTWKNFEVAHGNEATVRDMLRVRRSVEASYNVNVTLTSVQMRVDAERKAQETTTSSNPMDSLDQQQQQPSDGAGSITQVSMNKGNISFVRGAGKTVQQNTTENPDEIDLDEDDDDEEDDGGDADISVKVVPAQIFGNLKLAEEEEEA | soluble
MAHHHHHHMLRLSFVHRKSRHQNVLRRGRPHMQKYRELNRWQRQAQGISKWDQSQSHRPLPYVERFNPEGVGVTRGTSAFAWQWWHTQQPWLPNVAPPNHTGRKITNTSGTTEETAKPPAWDEEFTSVVLSMTDSEIREYLLDKLTDVIFAETQRDGYELRRLDFEGNPLTELPERRIIESFVFEEETLRERVIYQVVEGVFRLSPTSADRRELRSVETIIDYVLTHVSAARPDSRPRVTPAALAVMQQCPLQPELGFVHALPVDSRDEILQEWERMHHLDWQFGKAVYVPRSREETRGNLTWLREERHNAERVEFMKRVASGEAKAEHMRRIAEAACTERPETMHG | not soluble
MAAAAELSLLEKSLGLSKGNKYSAQGERQIPVLQTNNGPSLMGLTTIAAHLVKQANKEYLLGSTAEEKAMVQQWLEYRVTQVDGHSSKNDIHTLLMDLNSYLEDKVYLTGYNFTLADILLYYGLHRFIVDLTVQEKEKYLNVSRWFCHIQHYPGIRQHLSSVVFIKNRLYTNSH | soluble
MGKKYKNIVLLKGLEVINDYHFRMVKSLLSNDLKLNLKMREEYDKIQIADLMEEKFRGDAGLGKLIKIFEDIPTLEDLAETLKKEKLKVKGPALSRKRKKEVDATSPAPSTSSTVKTEGAEATPGAQKRKKSTKEKAGPKGSKVSEEQTQPPSPAGAGMSTAMGRSPSPKTSLSAPPNTSSTENPKTVAKCQVTPRRNVLQKRPVIVKVLSTTKPFEYETPEMEKKIMFHATVATQTQFFHVKVLNTSLKEKFNGKKIIIISDYLEYDSLLEVNEESTVSEAGPNQTFEVPNKIINRAKETLKIDILHKQASGNIVYGVFMLHKKTVNQKTTIYEIQDDRGKMDVVGTGQCHNIPCEEGDKLQLFCFRLRKKNQMSKLISEMHSFIQIKKKTNPRNNDPKSMKLPQEQSQLPNPSEASTTFPESHLRTPQMPPTTPSSSFFTKKSEDTISKMNDFMRMQILKEGSHFPGPFMTSIGPAESHPHTPQMPPSTPSSSFLTTLKPRLKTEPEEVSIEDSAQSDLKEVMVLNATESFVYEPKEQKKMFHATVATENEVFRVKVFNIDLKEKFTPKKIIAIANYVCRNGFLEVYPFTLVADVNADRNMEIPKGLIRSASVTPKINQLCSQTKGSFVNGVFEVHKKNVRGEFTYYEIQDNTGKMEVVVHGRLTTINCEEGDKLKLTCFELAPKSGNTGELRSVIHSHIKVIKTRKNKKDILNPDSSMETSPDFFF | soluble
MGSDKIHHHHHHMMTDTHASKNTSTDRSTLDEETVPGGGHTSFILKRGQILQITDVEGGGNVGLLLFNAHQTSERLNLPDTLKGQHTAKLTAGYCLYSDMGRVLAAIVTDTCGWHDSMGGVLNAQEVHEKYGQGRYQELRNGFFRNGMDNLLVEMGKWNLNLQDLLMTINLFSKVTVDAQGQFRFHANHSQAGNYIELYAPMDTLVVLTALQHPMDPNPTYAPRPIALTWSRAEGEDVAKYCREFREENARAFHNTERGYL | not soluble
MGSDKIHHHHHHMKKLHGFENEYLFVLPPVILNNFNFSKVIKLLYITDLGFYPKARYHFVHRDRGTEEWILIFCTHGKGVVKSATEEWLIESGSIVLLPPGKEHTYYAFDDDPWDIFWAHFNGDSVNEYIPQEALQGNGFLVINKTSTEDMQMLMSQFWQMIQALSAGFSYQSVFYSSQVLGATLAYVSLQSVLPHDSYTMGNEYITKAVKYIYDHFEEKVSLSTLTEVLDVSKSYLSRIFRQTVGTSVNQFILDIKMKQACYYLKDTNLAVHQIASRLGYDDPYYFSRIFKKVVGSSPRVFRKQEKNRL | not soluble
MGHHHHHHSHMGIKYHEESIHAAYVHVIENSRHYIYIENQFFISCADDKVVFNKIGDAIAQRILKAHRENQKYRVYVVIPLLPGFEGDISTGGGNALQAIMHFNYRTMCRGENSILGQLKAELGNQWINYISFCGLRTHAE | soluble
MAHHHHHHMPSSFAAQQQGSCNPHQNPVRSHKGGYLRCPFNISSSYAELAERRVHEDLACGRSRAAVADKDGVKAFPSTGPQVDSDGIDGDFAGRPWSRAGVGANRLSGKEKRTQQEQAEHIYGRGTLAEDDGAVAATGAVSVTSDLLQENMFAVDVRERAALQKVVPRAVREQVKRRKLEDVKKERLSPGNHCRHGCAPLHTDRAAGEEAGEDDDVESRSEDHMAGPPRERTRFSSPAAGSSRVGAPPLPHSAGSKDHPSGGSSSANVGAERSPRSGPSDASAQRPPLREPTPAPVSAKSNCPKNRMQMLDGLRASALMNKKGRR | soluble
MKEKDLIRFMDRMIEERKAEYALGTAHIYQASRNALSAFLKAHDIPFKRVRPELLKQFERFLRRRGNSWNTVSTYMRVLRAVYNRAVDRRLAPHVPHLFKAVYTGTQADIKRALKAEEMGQLLDTKCTRKQSELLQKTHHLFVLMFLLRGLPFVDLAYIQKKDLNGNILTYHRRKTGRQITITVTKDAMNIIREYMDTTTESPYLFPILSAEGGEDTIYREYQQALRIFNYQLTKLGELLGLTTELTSYTARHTWATLAYYLEVHPGIIREAMGHSSIKVTETYLKPFNIKKLDETNLSIIGYAKRSFEG | not soluble
MPGHELEDVINQRLNLYDVLELPTPLDVHTIYDDLPQIKRKYRTLALKYHPDKHPDNPSIIHKFHLLSTATNILTNADVRPHYDRWLIEFLRKTNDIERNKLIQKLEESESSTIPTTTPHPDLLQIQRHGELLRKLKHFNLPYGDWKHLNTQDQENASQHPYYDCSTLRIVLDNFLQSNNKSNCLSHLRNQVFITLSANEIYDIYFSERNNYSKDDSIIIYTVFDTPITAQHVFRNWSSGNLIPTVKDISPLIPLHYYSDFNLETELNDDIARLVSNEPILLD | not soluble
MELDVKFEEKDLQHIRQVFSRLRGLGKSDGLTRKMASVLQEDAEDAFAMERTPDGVKWRDLSPKYKKQRYNKGYTGNILQRHGDLAGSLNIAYGDNFAAVGVAEHYGEYHQLGTKKMSARPFLGISEDGVEEIKEILNNAIRRALRD | not soluble
MKFGWVNVIGDNWEEKKKIVTTALESSIPVVVAEPEDIEKIKELGNIKVASHSLDADIVLVNKNDNIEFLKEAKNLGKETAIYIPIESKEDEEFASEVARFGFVDNIILEGRDWTIIPLENLIADLFHRDVKIVASVNSVDEAKVAYEILEKGTDGVLLNPKNLEDIKELSKLIEEMNKEKVALDVATVTKVEPIGSGDRVCIDTCSLMKIGEGMLIGSYSRALFLVHSETVENPYVATRPFRVNAGPVHAYILCPGNKTKYLSELKAGDKVLIVDKDGNTREAIVGRVKIERRPLVLIEAEYKGDIIRTILQNAETIRLVNEKGEPISVVDLKPGDKVLIKPEEYARHFGMAIKETIIEKLEHHHHHH | soluble
SKNEKEQLSKAKASVSSLNKVIQTKLTVGNLGLGLVVIQNGPYLQISHLINKGAAASDGILQPGDVLISVGHANVLGYTLREFLKLLQNITIGTVLQIKAYRGFLEIPQEWQD | soluble
